B1: Peptide SEQ ID NO: 202 (…) (peptide)
peptide: VYWDSAGAAHF
B2: Peptide SEQ ID NO: 209 (…) (peptide)
peptide: TYKDEGNDYF
B3: Peptide SEQ ID NO: 285 (…) (peptide)
peptide: HYPPVQVLF
B4: Peptide SEQ ID NO: 268 (…) (peptide)
peptide: QYLGQIQHI
B5: Peptide SEQ ID NO: 222 (…) (peptide)
peptide: TFSVSSHLF
B6: Peptide SEQ ID NO: 173 (…) (peptide)
peptide: IYSWILDHF
B7: Peptide SEQ ID NO: 269 (…) (peptide)
peptide: YFIDSTNLKTHF
B8: Peptide SEQ ID NO: 207 (…) (peptide)
peptide: AYVVFVSTL
B9: Peptide SEQ ID NO: 204 (…) (peptide)
peptide: TYELRYFQI
B10: Peptide SEQ ID NO: 196 (…) (peptide)
peptide: LYIDRPLPYL
B11: Peptide SEQ ID NO: 174 (…) (peptide)
peptide: VYVGGGQIIHL
B12: Peptide SEQ ID NO: 277 (…) (peptide)
peptide: VYQGHTALL
B13: Peptide SEQ ID NO: 218 (…) (peptide)
peptide: YYKSTSSAF
B14: Peptide SEQ ID NO: 287 (…) (peptide)
peptide: LYITEPKTI
B15: Peptide SEQ ID NO: 199 (…) (peptide)
peptide: RYAEEVGIF
B16: Peptide SEQ ID NO: 270 (…) (peptide)
peptide: NYYEVHKELF
B17: Peptide SEQ ID NO: 200 (…) (peptide)
peptide: YYGPSLFLL
B18: Peptide SEQ ID NO: 195 (…) (peptide)
peptide: TYSVSFPMF
B19: Peptide SEQ ID NO: 281 (…) (peptide)
peptide: PYRLIFEKF
B20: Peptide SEQ ID NO: 201 (…) (peptide)
peptide: IYATEAHVF
B21: Peptide SEQ ID NO: 175 (…) (peptide)
peptide: YYEVHKELF
B22: Peptide SEQ ID NO: 197 (…) (peptide)
peptide: EYSLFPGQVVI
B23: Peptide SEQ ID NO: 176 (…) (peptide)
peptide: EYNQWFTKL

Among the data in patent publication US20170189511A1 are peptide exchange yield values, retold here.

The target in this assay is HLA-A*24 (peptide-receptive MHC class I monomer of the UV-ligand exchange assay) (human). The assay is described as follows: UV-ligand exchange with anti-b2m ELISA. Background: An ELISA detects its analyte on a solid surface through an enzyme-linked reagent.
Take B1: the peptide exchange yield was more than 75%.
Regarding B2, the peptide exchange yield fell in the range of 50 to 75%.
In the case of B3 it was 50 to 75%.
In the case of B4 it was 50 to 75%; in that of B5, 50 to 75%; in that of B6, more than 75%.
The value for B7 was 50 to 75%; that for B8 was 20 to 49%; that for B9 was more than 75%.
On to B10, for which the peptide exchange yield lay within 50 to 75%.
As to B11, the peptide exchange yield is 50 to 75%.
Regarding B12, the peptide exchange yield was more than 75%.
In the case of B13 it was 50 to 75%; in that of B14, 50 to 75%.
In the case of B15, the peptide exchange yield lay within 50 to 75%.
Consider B16, for which the peptide exchange yield was in the range of 50 to 75%.
B17 gave a peptide exchange yield of 50 to 75%.
In the case of B18 it was more than 75%; in that of B19, 20 to 49%; in that of B20, 50 to 75%.
Molecule B21 registered a peptide exchange yield of more than 75%.
In the case of B22 it was 50 to 75%.
In the case of B23 it was 50 to 75%.
